Molecular target: the molecule itself
Assay: cryo-EM structure; single-particle analysis of purified AtSLAC1 S59A in 25 mM HEPES pH 7.4, 150 mM NaCl, 0.03% digitonin; final refinement with C3 symmetry; 2.7 Å

B1: Arabidopsis thaliana slow anion channel 1 (AtSLAC1) S59A mutant (natural protein, UniProt Q9LD83 1-556, looked up)
chain: MERKQSNAHSTFADINEVEDEAEQELQQQENNNNKRFSGNRGPNRGKQRPFRGFSRQVALETGFSVLNRESRERDDKKSLPRSGRSFGGFESGGIINGGDGRKTDFSMFRTKSTLSKQKSLLPSIIRERDIENSLRTEDGETKDDSINENVSAGRYFAALRGPELDEVKDNEDILLPKEEQWPFLLRFPIGCFGICLGLSSQAVLWLALAKSPATNFLHITPLINLVVWLFSLVVLVSVSFTYILKCIFYFEAVKREYFHPVRVNFFFAPWVVCMFLAISVPPMFSPNRKYLHPAIWCVFMGPYFFLELKIYGQWLSGGKRRLCKVANPSSHLSVVGNFVGAILASKVGWDEVAKFLWAVGFAHYLVVFVTLYQRLPTSEALPKELHPVYSMFIAAPSAASIAWNTIYGQFDGCSRTCFFIALFLYISLVARINFFTGFKFSVAWWSYTFPMTTASVATIKYAEAVPGYPSRALALTLSFISTAMVCVLFVSTLLHAFVWQTLFPNDLAIAITKRKLTREKKPFKRAYDLKRWTKQALAKKISAEKDFEAEEESHH
modifications: S146 and S543 identified as phosphorylated by mass spectrometry of the purified S59A mutant
notes: Slow anion channel 1 (SLAC1), Arabidopsis thaliana, full length, 556 residues; codon-optimised synthetic DNA; residues 150-517 modelled in the structure; No step that removes the tags is described; not shown: Flag, N-terminal, kept
Q: B1 was tested. Which “stoichiometry N” value did it give?
A: 3

Reference: publication PMC9076830, “Structure of the Arabidopsis guard cell anion channel SLAC1 suggests activation mechanism by phosphorylation” (Nature Communications, 2022)
